Here are results for three molecules from article PMC4797271, “The quorum-sensing regulator ComA from Bacillus subtilis activates transcription using topologically distinct DNA motifs”.

Series [1] deals with T1, ComA (Bacillus subtilis, UniProt P14204 1-214).
T1 sequence: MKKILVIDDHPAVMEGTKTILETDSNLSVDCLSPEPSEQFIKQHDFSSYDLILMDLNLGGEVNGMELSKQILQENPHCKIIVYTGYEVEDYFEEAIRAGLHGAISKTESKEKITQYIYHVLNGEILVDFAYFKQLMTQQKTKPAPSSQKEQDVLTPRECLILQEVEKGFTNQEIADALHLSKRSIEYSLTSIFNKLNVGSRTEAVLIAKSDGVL
The series can be described thus: EMSA; multiple complexes; EMSA: 10 mM HEPES pH 7.6, 2 mM MgCl2, 0.1 mM EDTA, 200 mM KCl, 5 mM DTT, 10% glycerol; 10 ng DNA in 15 ul, 20 min, room temperature. Particulars: protein: recombinant; tags: N-terminal His6 (from expression primer); chain copies: 2; label: 5' biotin on strand 1; blunt. A general note: Mobility shift assays separate free from complexed probe on a gel.

Series [2] concerns the target T1, ComA. The series can be described thus: EMSA; complex at 1.2 uM or more; affinity similar to PDR; EMSA: 10 mM HEPES pH 7.6, 2 mM MgCl2, 0.1 mM EDTA, 200 mM KCl, 5 mM DTT, 10% glycerol; 10 ng DNA in 15 ul, 20 min, room temperature. Particulars: protein: recombinant; tags: N-terminal His6 (from expression primer); chain copies: 2; label: 5' biotin on strand 1; blunt.

Series [3] addresses T2, ComA;RNA polymerase alpha subunit (Bacillus subtilis;Bacillus subtilis, UniProt P14204;P20429 1-214;1-314, |).
T2 sequence 1: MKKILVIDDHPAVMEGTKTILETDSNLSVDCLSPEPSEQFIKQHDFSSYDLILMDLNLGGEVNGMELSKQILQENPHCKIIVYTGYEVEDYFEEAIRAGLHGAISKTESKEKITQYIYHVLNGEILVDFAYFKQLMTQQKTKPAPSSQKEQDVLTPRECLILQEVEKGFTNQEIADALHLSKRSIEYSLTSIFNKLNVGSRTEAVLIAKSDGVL
T2 sequence 2: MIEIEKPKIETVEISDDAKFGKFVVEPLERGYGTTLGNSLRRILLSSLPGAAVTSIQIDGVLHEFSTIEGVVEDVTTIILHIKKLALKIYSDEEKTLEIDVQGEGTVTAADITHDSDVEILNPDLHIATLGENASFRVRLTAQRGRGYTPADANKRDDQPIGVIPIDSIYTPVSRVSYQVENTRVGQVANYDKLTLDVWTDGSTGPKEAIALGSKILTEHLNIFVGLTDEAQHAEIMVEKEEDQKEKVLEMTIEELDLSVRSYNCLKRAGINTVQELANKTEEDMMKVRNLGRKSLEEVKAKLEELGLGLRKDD
The series can be described thus: EMSA; supershift, same alpha concentration as PDR; EMSA: 10 mM HEPES pH 7.6, 2 mM MgCl2, 0.1 mM EDTA, 200 mM KCl, 5 mM DTT, 10% glycerol; 10 ng DNA in 15 ul, 20 min, room temperature. Particulars: protein: recombinant;recombinant; tags: N-terminal His6 (from expression primer);N-terminal His6 (from expression primer); label: 5' biotin on strand 1; blunt.

Series [4] has as its target T3, ComA;sigma factor sigmaA (Bacillus subtilis;Bacillus subtilis, UniProt P14204;P06224 1-214;1-371, |). The experiment in a line: EMSA; supershift, same sigmaA concentration as PDR; EMSA: 10 mM HEPES pH 7.6, 2 mM MgCl2, 0.1 mM EDTA, 200 mM KCl, 5 mM DTT, 10% glycerol; 10 ng DNA in 15 ul, 20 min, room temperature. Particulars: protein: recombinant;recombinant; tags: N-terminal His6 (from expression primer);N-terminal His6 (from expression primer); chain copies: 2;1; label: 5' biotin on strand 1; blunt.

For series [5], the target named is T1, ComA. The series can be described thus: EMSA; complex at 1.2 uM or more; affinity similar to PIR; EMSA: 10 mM HEPES pH 7.6, 2 mM MgCl2, 0.1 mM EDTA, 200 mM KCl, 5 mM DTT, 10% glycerol; 10 ng DNA in 15 ul, 20 min, room temperature. Particulars: protein: recombinant; tags: N-terminal His6 (from expression primer); chain copies: 2; label: 5' biotin on strand 1; blunt.

The target of series [6] is T3, ComA;sigma factor sigmaA. The series can be described thus: EMSA; supershift, lower mobility than PIR; EMSA: 10 mM HEPES pH 7.6, 2 mM MgCl2, 0.1 mM EDTA, 200 mM KCl, 5 mM DTT, 10% glycerol; 10 ng DNA in 15 ul, 20 min, room temperature. Particulars: protein: recombinant;recombinant; tags: N-terminal His6 (from expression primer);N-terminal His6 (from expression primer); chain copies: 2;1; label: 5' biotin on strand 1; blunt.

For series [7], the target named is T2, ComA;RNA polymerase alpha subunit. The experiment in a line: EMSA; supershift; EMSA: 10 mM HEPES pH 7.6, 2 mM MgCl2, 0.1 mM EDTA, 200 mM KCl, 5 mM DTT, 10% glycerol; 10 ng DNA in 15 ul, 20 min, room temperature. Particulars: protein: recombinant;recombinant; tags: N-terminal His6 (from expression primer);N-terminal His6 (from expression primer); label: 5' biotin on strand 1; blunt.

T3 sequence (P06224 whole entry, one chain of several): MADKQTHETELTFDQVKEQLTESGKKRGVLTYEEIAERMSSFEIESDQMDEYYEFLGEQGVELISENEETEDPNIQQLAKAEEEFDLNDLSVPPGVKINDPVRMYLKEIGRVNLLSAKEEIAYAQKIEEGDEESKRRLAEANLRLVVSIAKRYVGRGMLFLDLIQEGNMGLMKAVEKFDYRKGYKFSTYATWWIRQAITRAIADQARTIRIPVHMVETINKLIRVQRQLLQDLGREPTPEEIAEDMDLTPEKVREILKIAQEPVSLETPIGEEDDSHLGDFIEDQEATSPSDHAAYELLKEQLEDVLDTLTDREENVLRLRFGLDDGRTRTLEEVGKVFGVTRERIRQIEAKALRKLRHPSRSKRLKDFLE

B1: Ppel DR cluster (DR1-DR3) (dsDNA)
DNA 1: CGGCCTTTTGGTTTTTTTGCGGTCTTTGCGGTGGGATTTTGCAGAAT
DNA 2: ATTCTGCAAAATCCCACCGCAAAGACCGCAAAAAAACCAAAAGGCCG
For B1, the binding result with ComA [1] is recorded as “binds”.

B2: PIR (perfect inverted repeat) (dsDNA)
DNA 1: ATGTTTAGTGGAAATGATTGCGGCATCCCGCAAAAAATATTGCTGTAAAT
DNA 2: ATTTACAGCAATATTTTTTGCGGGATGCCGCAATCATTTCCACTAAACAT
As to B2, the binding result (in the series with ComA [2]; in series [3]; with ComA;sigma factor sigmaA [4]) was “binds” each time.

B3: PDR (perfect direct repeat) (dsDNA)
DNA 1: AAACTGGAATCGAAACTTTGCGGCCATTTTGCGGTGATAAAAACATTTTT
DNA 2: AAAAATGTTTTTATCACCGCAAAATGGCCGCAAAGTTTCGATTCCAGTTT
On to B3, for which the binding result (in the series with ComA [5]; with ComA;sigma factor sigmaA [6]; in series [7]) was “binds” in each case.
